Reference: patent US10400249B2, “HPPD variants and methods of use” (priority 2014, dated 2019)

Tested on: maize T0 events
Assay: greenhouse spray test of maize T0 events for tolerance to Cmpd. 4
Type: in vivo
Conditions: Cmpd. 4 at 100 g AI/ha; for number of maize T0 events in herbicide tolerance class 0 (41%-100% damaged leaf area) / number of maize T0 events in herbicide tolerance class 1 (16%-41% damaged leaf area) / number of maize T0 events in herbicide tolerance class 2 (6%-15% damaged leaf area) / number of maize T0 events in herbicide tolerance class 3 (0%-5% damaged leaf area): six days after application
From the text: Constructing the plant expression cassette for stable expression in the maize plant and maize transformation are well known in the art and in this particular example the methods were described and used from the PCT patent publication WO2014/043435 and WO2008/100353. The polynucleotide sequences encoding the HPPD variants in this application have been stacked with a DNA sequence encoding an EPSPS protein variant to confer tolerance to herbicides, which target the EPSPS. The EPSPS gene was isolated and mutated from Arthrobacter globiformis (WO2008/100353) and joined in-frame to a transit peptide sequence to guide translocation of the translated protein to the chloroplast.
The corresponding HPPD variants were cloned with the same promoter, chloroplast transit peptide, and terminator sequence as described for the EPSPS gene expression cassette. The coding sequences for both genes have been codon optimized for maize expression. For the maize transformation ears are best collected 8-12 days after pollination. Embryos were isolated from the ears, and those embryos 0.8-1.5 mm in size were preferred for use in transformation. Embryos were plated scutellum side-up on a suitable incubation media, and incubated overnight at 25° C. in the dark.
However, it was not necessary per se to incubate the embryos overnight. Embryos are contacted with an Agrobacterium strain containing the appropriate vectors having a nucleotide sequence of the present invention for Ti plasmid mediated transfer for about 5-10 min, and then plated onto co-cultivation media for about 3 days (25° C. in the dark). After co-cultivation, explants were transferred to recovery period media for about five days (at 25° C. in the dark). Explants were incubated in selection media with glyphosate for up to eight weeks, depending on the nature and characteristics of the particular selection utilized. After the selection period, the resulting callus were transferred to embryo maturation media, until the formation of mature somatic embryos is observed. The resulting mature somatic embryos were then placed under low light, and the process of regeneration was initiated as known in the art. The resulting shoots were allowed to root on rooting media, and the resulting plants were transferred to nursery pots and propagated as transgenic plants. Plants were routinely analyzed for the expression and presence of the transgenes using the ELISA protein detection method. Only plants recovering in the selection media and having a detectable HPPD transgene protein expression were used for the herbicide tolerance analysis.
Regenerated T0 events from tissue culture were transplanted into two inch square pots with synthetic soil (Fafard® Mix) and controlled-released fertilizer (Haifa Multicote™; polymer-coated controlled-release fertilizer, NPK Pro 18-6-12+ Micronutrients) and cultivated in the greenhouse (GH) under supplementary high pressure sodium light for 12 days at a maximum of 30° C. during the day and a minimum of 22° C. at night. Fully recovered plants were transferred into five inch square pots filled with synthetic soil and control released fertilizer under the same environmental conditions. After seven days the T0 plants have been sprayed with 2-chloro-3-(methylsulfanyl)-N-(1-methyl-1H-tetrazol-5-yl)-4-(trifluoromethyl)benzamide (Cmpd. 4); at agronomic relevant concentration of 100 g AI/ha (with “g AI/ha” meaning “gram of active ingredient per hectare”) prepared from a WP20 (wettable powder 20%) formulation supplemented with esterified vegetable oil mixture (Hasten™ spray adjuvants, 0.578% v/v) and ammonium sulphate (AMS, 0.97% w/v). The herbicide treatment was conducted in a DeVries Tracker Sprayer system with standard application protocols, which are well known in the art. As a spray control T0 events have been sprayed with the adjuvant mixture lacking the herbicide. […]

Molecule | share of tested maize events with good to high tolerance, 15% or less bleached leaf area | share of tested maize events with less than 5% or no visual leaf damage | number of maize T0 events in herbicide tolerance class 0 (41%-100% damaged leaf area) | number of maize T0 events in herbicide tolerance class 1 (16%-41% damaged leaf area) | number of maize T0 events in herbicide tolerance class 2 (6%-15% damaged leaf area) | number of maize T0 events in herbicide tolerance class 3 (0%-5% damaged leaf area)
FLP136: PfHPPD variant P215L, E335P, G336F (protein, HPPD variant - FLP136, PfHPPD variant P215L, E335P, G336F) MADLYENPMGLMGFEFIEFASPTPGTLEPIFEIMGFTKVATHRSKNVHLYRQGEINLILNNEPNSIASYFAAEHGPSVCGMAFRVKDSQKAYNRALELGAQPIHIDTGPMELNLPAIKGIGGAPLYLIDRFGEGSSIYDIDFVYLEGVERNPVGAGLKVIDHLTHNVYRGRMVYWANFYEKLFNFREARYFDIKGEYTGLTSKAMSAPDGMIRILLNEESSKGAGQIEEFLMQFNGEGIQHVAFLTDDLVKTWDALKKIGMRFMTAPPDTYYEMLEGRLPDHGEPVDQLQARGILLDGSSVEGDKRLLLQIFSETLMGPVFFEFIQRKGDDGFGPFNFKALFESIERDQVRRGVLTAD | Approximately 40% | ~15% | 13 | 37 | 21 | 13
FLP202: PfHPPD variant P215L, E335P, G336F, A340E (protein, HPPD variant - FLP202, PfHPPD variant P215L, E335P, G336F, A340E) MADLYENPMGLMGFEFIEFASPTPGTLEPIFEIMGFTKVATHRSKNVHLYRQGEINLILNNEPNSIASYFAAEHGPSVCGMAFRVKDSQKAYNRALELGAQPIHIDTGPMELNLPAIKGIGGAPLYLIDRFGEGSSIYDIDFVYLEGVERNPVGAGLKVIDHLTHNVYRGRMVYWANFYEKLFNFREARYFDIKGEYTGLTSKAMSAPDGMIRILLNEESSKGAGQIEEFLMQFNGEGIQHVAFLTDDLVKTWDALKKIGMRFMTAPPDTYYEMLEGRLPDHGEPVDQLQARGILLDGSSVEGDKRLLLQIFSETLMGPVFFEFIQRKGDDGFGPFNFKELFESIERDQVRRGVLTAD | More than 30% | ~13% | 12 | 49 | 16 | 12
